Assay [1] addresses T1, cynomolgus monkey CD3 epsilon (cynomolgus monkey, UniProt Q95LI5 22-117, limits assumed).
T1 construct: also called cyCD3e; cyno CD3
T1 sequence (looked up): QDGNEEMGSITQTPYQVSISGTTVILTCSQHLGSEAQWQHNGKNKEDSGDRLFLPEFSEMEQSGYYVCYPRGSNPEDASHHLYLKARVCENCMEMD
Kind of assay: Biacore. Background: Surface plasmon resonance follows binding to a sensor surface in real time, without labels.

The target in assay [2] is T2, human CD3 epsilon (human, UniProt P07766 23-126, limits assumed).
T2 construct: also called huCD3e
As to the kind of experiment: Biacore.

Assay [3] has as its target T3, cynomolgus monkey PSMA (cynomolgus monkey, UniProt A0A2K5VNZ0 44-750).
T3 construct: also called cyPSMA; cyno PSMA
As to the kind of experiment: Octet.

Assay [4] concerns the target T4, human PSMA (human, UniProt Q04609 44-750, limits assumed).
T4 construct: also called huPSMA; hPSMA
Kind of assay: Octet. In general terms: BLI is a label-free optical method that tracks binding on a fibre tip over time.

The target of another assay is PSMA on LNCaP cells (human, UniProt Q04609 1-750). As to the kind of experiment: cell-based or functional assay.
Assay [5] concerns the target T3, cynomolgus monkey PSMA. As to the kind of experiment: BLI or SPR.
Assay [6] concerns the target T4, human PSMA. As to the kind of experiment: BLI or SPR.
Assay [7] addresses T1, cynomolgus monkey CD3 epsilon. As to the kind of experiment: BLI or SPR.
Assay [8] has as its target T2, human CD3 epsilon. Kind of assay: BLI or SPR.
Assay [9] concerns the target T1, cynomolgus monkey CD3 epsilon. Kind of assay: Octet.
Assay [10] deals with T2, human CD3 epsilon. As to the kind of experiment: Octet.
In a further assay the target is PSMA on 22Rv1 cells (human, UniProt Q04609 1-750). As to the kind of experiment: cell-based or functional assay.
The target of assay [11] is T3, cynomolgus monkey PSMA. Kind of assay: Biacore.
The target in assay [12] is T4, human PSMA. As to the kind of experiment: Biacore.
Assay [13] deals with T5, human PSMA on PSMA-transfected CHO cells (human, UniProt Q04609 1-750).
T5 construct: whole, on cells; also called Hu PSMA CHO
Kind of assay: cell binding, labeled secondary antibody. As for the experimental part: (§1) Surface binding was detected with a labeled secondary antibody specific for the anti-CD3 scFv.
(§2) The binding affinities to both human and cyno PSMA and human and cyno CD3 epsilon were determined.

Assay [14] deals with T6, human PSMA-Fc (human, UniProt Q04609 44-750).
T6 construct: also called Human PSMA-Fc fusion
As to the kind of experiment: Octet.

The target in assay [15] is T6, human PSMA-Fc. Kind of assay: Octet, PSMA-Fc. On the procedure:
Binding affinity of select PSMA PTE variants was tested by Octet.

Assay [16] addresses T6, human PSMA-Fc. As to the kind of experiment: Octet. This is another data set of the same source.
Assay [17] concerns the target T7, cyno PSMA on PSMA-transfected CHO cells (cynomolgus monkey, UniProt A0A2K5VNZ0 1-750).
T7 construct: whole, on cells; also called Cyno PSMA CHO
As to the kind of experiment: cell binding, labeled secondary antibody. As for the experimental part: as §1, §2

PSMA on 22Rv1 cells, sequence (Q04609 whole entry): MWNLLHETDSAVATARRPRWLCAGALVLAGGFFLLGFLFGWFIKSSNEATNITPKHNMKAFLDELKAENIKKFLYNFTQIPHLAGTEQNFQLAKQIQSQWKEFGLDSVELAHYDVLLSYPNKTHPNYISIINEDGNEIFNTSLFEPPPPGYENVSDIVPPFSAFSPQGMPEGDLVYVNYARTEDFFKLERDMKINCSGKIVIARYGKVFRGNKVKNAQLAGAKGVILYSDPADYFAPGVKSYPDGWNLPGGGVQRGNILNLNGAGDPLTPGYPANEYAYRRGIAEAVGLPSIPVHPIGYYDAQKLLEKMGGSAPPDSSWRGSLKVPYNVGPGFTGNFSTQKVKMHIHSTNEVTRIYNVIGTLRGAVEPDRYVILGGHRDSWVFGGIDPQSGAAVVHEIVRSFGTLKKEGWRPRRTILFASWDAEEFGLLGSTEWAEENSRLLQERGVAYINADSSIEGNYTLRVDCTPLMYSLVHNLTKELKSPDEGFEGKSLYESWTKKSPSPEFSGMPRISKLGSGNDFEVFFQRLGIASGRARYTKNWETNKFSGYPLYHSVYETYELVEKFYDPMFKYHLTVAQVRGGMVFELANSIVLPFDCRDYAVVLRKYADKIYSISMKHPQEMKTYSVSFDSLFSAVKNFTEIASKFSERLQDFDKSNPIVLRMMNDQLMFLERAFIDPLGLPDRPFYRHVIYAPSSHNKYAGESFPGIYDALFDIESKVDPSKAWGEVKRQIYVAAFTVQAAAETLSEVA
PSMA on LNCaP cells, sequence (Q04609 whole entry): as above
T6 sequence (Q04609 44-750 limits assumed): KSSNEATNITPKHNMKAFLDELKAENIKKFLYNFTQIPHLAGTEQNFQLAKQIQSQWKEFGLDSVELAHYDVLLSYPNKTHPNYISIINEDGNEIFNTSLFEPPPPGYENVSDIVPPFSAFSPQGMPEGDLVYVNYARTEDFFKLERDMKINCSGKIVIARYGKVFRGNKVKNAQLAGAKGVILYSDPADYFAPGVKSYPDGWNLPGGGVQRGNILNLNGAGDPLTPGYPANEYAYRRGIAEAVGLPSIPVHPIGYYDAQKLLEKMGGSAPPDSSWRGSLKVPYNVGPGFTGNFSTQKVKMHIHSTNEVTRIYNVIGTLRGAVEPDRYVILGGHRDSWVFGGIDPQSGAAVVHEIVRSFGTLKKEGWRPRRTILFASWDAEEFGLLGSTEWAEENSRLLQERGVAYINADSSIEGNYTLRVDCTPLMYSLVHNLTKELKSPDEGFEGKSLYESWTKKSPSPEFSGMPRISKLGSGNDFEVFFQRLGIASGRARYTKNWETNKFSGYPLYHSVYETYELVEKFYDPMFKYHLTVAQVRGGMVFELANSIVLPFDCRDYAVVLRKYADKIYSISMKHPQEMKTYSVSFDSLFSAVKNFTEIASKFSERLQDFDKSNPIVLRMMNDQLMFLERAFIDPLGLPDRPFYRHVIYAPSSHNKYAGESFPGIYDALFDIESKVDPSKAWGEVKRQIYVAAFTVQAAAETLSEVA
T4 sequence (Q04609 44-750 limits assumed): as above
T2 sequence (P07766 23-126 limits assumed): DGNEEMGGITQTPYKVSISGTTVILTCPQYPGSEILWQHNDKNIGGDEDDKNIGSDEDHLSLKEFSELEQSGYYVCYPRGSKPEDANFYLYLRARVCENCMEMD
T5 sequence (Q04609 whole entry): as the sequence (Q04609 whole entry) above

B1: AMX-500(uTCE) (bispecific antibody)
chain: QVQLVESGGGVVQPGRSLRLSCAASGRTFGIYVWGWFRQAPGKEREFVGAMSWSGSNRKVSDSVKGRFTISRDNSKNTLYLQMNSLRAEDTAVYYCAASNKEYGRTWYDFNESDYWGQGTQVTVSSGGGGSGGGSELVVTQEPSLTVSPGGTVTLTCRSSNGAVTSSNYANWVQQKPGQAPRGLIGGTNKRAPGTPARFSGSLLGGKAALTLSGVQPEDEAVYYCALWYPNLWVFGGGTKLTVLSESATPESGPGTSPGATPESGPGTSESATPEVQLVESGGGIVQPGGSLRLSCAASGFTFSTYAMNWVRQAPGKGLEWVGRIRTKRNNYATYYADSVKGRFTISRDDSKNTVYLQMNSLKTEDTAVYYCVRHENFGNSYVSWFAHWGQGTLVTVSS
notes: also called uTCE from AC3896; AMX-500-P4 uTCE
What is called Kd is the concentration at which binding is half-saturated. In general, koff refers to a measure of how fast the partners let go of each other. As a reminder, the kon is the second-order rate constant of association. For orientation: EC50 means the concentration giving half of the maximal effect. With B1, the Kd turned out to be 13.7 nM in [1]; 12.8 nM with human CD3 epsilon [2]; 201 nM in the assay with cynomolgus monkey PSMA [3]; 12.1 nM in the assay with human PSMA [4]; 410 nM with cynomolgus monkey PSMA [5]; 44 nM in the assay with human PSMA [6]. For the same molecule, the Kd in assay [7] was determined as 26 nM; in the assay with human CD3 epsilon [8], 28 nM; in assay [9], 38.8 nM; in the assay with human CD3 epsilon [10], 33.2 nM; in the assay with cynomolgus monkey PSMA [11], 230 nM; with human PSMA [12] it was 11.7 nM. The “in vitro cytotoxicity IC50, LNCaP cells, donor 1” value in the assay with PSMA on LNCaP cells came out at 0.024 nM. Further, in the assay with PSMA on LNCaP cells, the “in vitro cytotoxicity IC50, LNCaP cells, donor 2” value turned out to be 0.015 nM. The “in vitro cytotoxicity IC50, LNCaP cells, donor 3” value in the assay with PSMA on LNCaP cells is 0.016 nM. Besides, the “in vitro cytotoxicity IC50, LNCaP cells, donor 5” value with PSMA on LNCaP cells stood at 0.032 nM. The dissociation rate constant (koff) was found to be 0.043 s⁻¹ with cynomolgus monkey PSMA [5], 0.012 s⁻¹ in the assay with human PSMA [6], 0.1 s⁻¹ in [7] and 0.1 s⁻¹ in the assay with human CD3 epsilon [8]. The kon in the assay with cynomolgus monkey PSMA [5] worked out at 100000 M⁻¹ s⁻¹; with human PSMA [6], 270000 M⁻¹ s⁻¹; in [7], 5e+06 M⁻¹ s⁻¹; with human CD3 epsilon [8], 4e+06 M⁻¹ s⁻¹. In the assay with PSMA on 22Rv1 cells, the “in vitro cytotoxicity IC50, 22Rv1 cells, donor 1” value was found to be 0.691 nM. Besides, the “in vitro cytotoxicity IC50, 22Rv1 cells, donor 2” value with PSMA on 22Rv1 cells was 1.34 nM. Further, in the assay with PSMA on 22Rv1 cells, the “in vitro cytotoxicity IC50, 22Rv1 cells, donor 3” value worked out at 1.3 nM. In assay [13], the EC50 was found to be 17.4 nM.

B2: uTCE of AC3092 (bispecific antibody)
chain: QVQLVESGGGVVQPGRSLRLSCAASGRTFGIYVMGWVRQAPGKEREFVAAISWSGSNRLVSDSVKGRFTISRDNSKNTLYLQMNSLRAEDTAVYYCAASNRLYGRTWYDFNESDYWGQGTQVTVSSGGGGSGGGSELVVTQEPSLTVSPGGTVTLTCRSSNGAVTSSNYANWVQQKPGQAPRGLIGGTNKRAPGTPARFSGSLLGGKAALTLSGVQPEDEAVYYCALWYPNLWVFGGGTKLTVLGATPPETGAETESPGETTGGSAESEPPGEGEVQLLESGGGIVQPGGSLKLSCAASGFTFNTYAMNWVRQAPGKGLEWVARIRSKYNNYATYYADSVKDRFTISRDDSKNTVYLQMNNLKTEDTAVYYCVRHENFGNSYVSWFAHWGQGTLVTVSS
notes: also called AMX-500-P1; PSMA.5-CD3.23
Take B2: the Kd in the assay with cynomolgus monkey PSMA [3] came to 41.1 nM; with human PSMA [4], 4.5 nM; in the assay with human PSMA-Fc [14], 3.9 nM; in assay [9], 64.6 nM; with human CD3 epsilon [10] it was 71.9 nM; in the assay with human PSMA-Fc [15], 3.9 nM. For the same molecule, in the assay with human PSMA-Fc [16], the affinity, expressed as Kd, was 3.9 nM. The koff with human PSMA-Fc [14] was determined as 0.00027 s⁻¹; with human PSMA-Fc [15], 0.000273 s⁻¹. Further, the values for the kon with human PSMA-Fc [14] and with human PSMA-Fc [15] were 72000 M⁻¹ s⁻¹ and 72500 M⁻¹ s⁻¹, respectively. The EC50 worked out at 9.06 nM in assay [13] and 28.8 nM in [17].

These data come from patent publication US20260055205A1 (published 2026).
